B1: Sox9 promoter Smad site (dsDNA)
DNA 1: CTCGGAACTGTCTGGAAACTTCAG
DNA 2: CTGAAGTTTCCAGACAGTTCCGAG
B2: Sox9 promoter CRE (dsDNA)
DNA 1: CCTCGAGTCTCGTCACCCA
DNA 2: TGGGTGACGAGACTCGAGG

Experiments:
[1] = biological target: Smad3 (TNT-Smad3) (UniProt P84022 1-425); experiment: EMSA; specific; 40 mM Hepes pH 7.9, 75 mM KCl, 0.2 mM EDTA, 0.5 mM DTT, 150 ng/ul poly(dI-dC), 5% Ficoll, room temperature, 30 min; 7 ug TNT protein; competitor 100-fold or 50-fold (Methods); conditions: protein: ivt; label: 32P; blunt
[2] = biological target: CREB (TNT-CREB) (UniProt P16220 1-327); experiment: as above; conditions: protein: ivt; chain copies: 2; label: 32P; blunt
Chain of CREB (TNT-CREB) (P16220 whole entry): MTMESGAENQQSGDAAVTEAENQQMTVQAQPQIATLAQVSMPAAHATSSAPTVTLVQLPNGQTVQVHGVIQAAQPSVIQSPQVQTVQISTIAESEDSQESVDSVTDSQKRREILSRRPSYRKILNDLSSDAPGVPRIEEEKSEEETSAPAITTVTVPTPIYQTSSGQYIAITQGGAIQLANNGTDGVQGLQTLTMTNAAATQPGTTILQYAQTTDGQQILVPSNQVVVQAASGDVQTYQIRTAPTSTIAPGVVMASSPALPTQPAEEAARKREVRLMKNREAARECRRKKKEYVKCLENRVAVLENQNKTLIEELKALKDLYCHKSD

Chain of Smad3 (TNT-Smad3) (P84022 whole entry): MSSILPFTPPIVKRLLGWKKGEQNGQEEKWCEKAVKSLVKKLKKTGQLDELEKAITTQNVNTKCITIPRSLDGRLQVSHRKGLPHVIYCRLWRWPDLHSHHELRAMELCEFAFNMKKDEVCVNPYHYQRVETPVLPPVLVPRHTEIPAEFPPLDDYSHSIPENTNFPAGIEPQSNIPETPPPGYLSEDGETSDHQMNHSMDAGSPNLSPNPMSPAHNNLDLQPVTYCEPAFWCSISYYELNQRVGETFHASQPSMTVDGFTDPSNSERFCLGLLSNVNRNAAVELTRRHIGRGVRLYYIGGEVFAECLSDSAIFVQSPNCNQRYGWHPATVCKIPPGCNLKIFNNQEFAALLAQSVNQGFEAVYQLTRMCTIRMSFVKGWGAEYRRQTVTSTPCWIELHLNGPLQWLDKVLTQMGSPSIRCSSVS

Row | Binder | binding result [1] | binding result [2]
1 | B1 | binds | –
2 | B2 | – | binds

— PMC8828901, “Sox9 is involved in the thyroid differentiation program and is regulated by crosstalk between TSH, TGFβ and thyroid transcription factors”
